In article PMC4361902 (Nature, 2014):

Key:
cryo-EM structure = target: the molecule itself; test: cryo-EM structure
crystal structure = target: the molecule itself; test: crystal structure

B1: AcrB as it stands in the efflux pump assembly (AcrB moiety of the AcrA-AcrB fusion) (domain or fragment, E. coli, UniProt P31224 1-1047, looked up)
chain: MPNFFIDRPIFAWVIAIIIMLAGGLAILKLPVAQYPTIAPPAVTISASYPGADAKTVQDTVTQVIEQNMNGIDNLMYMSSNSDSTGTVQITLTFESGTDADIAQVQVQNKLQLAMPLLPQEVQQQGVSVEKSSSSFLMVVGVINTDGTMTQEDISDYVAANMKDAISRTSGVGDVQLFGSQYAMRIWMNPNELNKFQLTPVDVITAIKAQNAQVAAGQLGGTPPVKGQQLNASIIAQTRLTSTEEFGKILLKVNQDGSRVLLRDVAKIELGGENYDIIAEFNGQPASGLGIKLATGANALDTAAAIRAELAKMEPFFPSGLKIVYPYDTTPFVKISIHEVVKTLVEAIILVFLVMYLFLQNFRATLIPTIAVPVVLLGTFAVLAAFGFSINTLTMFGMVLAIGLLVDDAIVVVENVERVMAEEGLPPKEATRKSMGQIQGALVGIAMVLSAVFVPMAFFGGSTGAIYRQFSITIVSAMALSVLVALILTPALCATMLKPIAKGDHGEGKKGFFGWFNRMFEKSTHHYTDSVGGILRSTGRYLVLYLIIVVGMAYLFVRLPSSFLPDEDQGVFMTMVQLPAGATQERTQKVLNEVTHYYLTKEKNNVESVFAVNGFGFAGRGQNTGIAFVSLKDWADRPGEENKVEAITMRATRAFSQIKDAMVFAFNLPAIVELGTATGFDFELIDQAGLGHEKLTQARNQLLAEAAKHPDMLTSVRPNGLEDTPQFKIDIDQEKAQALGVSINDINTTLGAAWGGSYVNDFIDRGRVKKVYVMSEAKYRMLPDDIGDWYVRAADGQMVPFSAFSSSRWEYGSPRLERYNGLPSMEILGQAAPGKSTGEAMELMEQLASKLPTGVGYDWTGMSYQERLSGNQAPSLYAISLIVVFLCLAALYESWSIPFSVMLVVPLGVIGALLAATFRGLTNDVYFQVGLLTTIGLSAKNAILIVEFAKDLMDKEGKGLIEATLDAVRMRLRPILMTSLAFILGVMPLVISTGAGSGAQNAVGTGVMGGMVTATVLAIFFVPVFFVVVRRRFSRKNEDIEHSHTVD
- stoichiometry N (cryo-EM structure): 3

B2: AcrB with the C-terminal histidines removed (pET21a-acrBΔHis) (natural protein, E. coli, UniProt P31224 1-1047, looked up)
chain: B1 chain
- stoichiometry N (crystal structure): 3

B3: TolC (tolC1392, coexpressed from pRSFduet-1-acrA-polyGS-acrZHis5-tolC1392) (natural protein)
chain: ENLMQVYQQARLSNPELRKSAADRDAAFEKINEARSPLLPQLGLGADYTYSNGYRDANGINSNATSASLQLTQSIFDMSKWRALTLQEKAAGIQDVTYQTDQQTLILNTATAYFNVLNAIDVLSYTQAQKEAIYRQLDQTTQRFNVGLVAITDVQNARAQYDTVLANEVTARNNLDNAVEQLRQITGNYYPELAALNVENFKTDKPQPVNALLKEAEKRNLSLLQARLSQDLAREQIRQAQDGHLPTLDLTASTGISDTSYSGSKTRGAAGTQYDDSNMGQNKVGLSFSLPIYQGGMVNSQVKQAQYNFVGASEQLESAHRSVVQTVRSSFNNINASISSINAYKQAVVSAQSSLDAMEAGYSVGTRTIVDVLDATTTLYNAKQELANARYNYLINQLNIKSALGTLNEQDLLALNNALSKPVSTNPENVAPQTPEQNAIAD
- stoichiometry N (cryo-EM structure): 3
